Data: patent US20060029943A1

Target: HLA class I on primary cervical cancer cells CA1 and CA2 (haplotype HLA A1) (human)
Test: cell-based or functional assay

**Q.** For “Mab specific for monomorphic HLA class I W6/32 (antibody)”, which percent killing of CA1 target, AAV/E6/Neo (purified virus) plus anti-class I antibodies (36.1+/-1.4% without antibody) is on record?
**A.** 0.4%
